Reference: the supplement of paper PMC12764529
± gives the half width of the 95% confidence interval.

What was measured:
[1] = folding stability dG unfold (combined trypsin and chymotrypsin); higher = more stable
Experimental: (§1)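 Folding stability of de novo designed mini-proteins (<80 aa, no Cys; designed by TrROS, TrMRF, ProteinMPNN and the joint model) was measured by cDNA display proteolysis with trypsin and chymotrypsin. Each protease was used at 11 concentrations in a threefold dilution series plus a no-protease condition. K50 was inferred by Bayesian fitting of sequencing counts, and dG unfold was derived against a sequence-predicted unfolded-state K50 (Tsuboyama et al. method). Sequences shown include variable-length N-terminal GS-type padding (SAGGSAGG...) inside a display construct carrying a PA tag. Rows were kept only if the AF2 dimer inter-PAE was >15, to exclude likely homo-oligomers.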

[2] = folding stability dG unfold from chymotrypsin proteolysis; higher = more stable
Experimental: as §1

Row | Sequence | folding stability dG unfold [1] [kcal/mol] | folding stability dG unfold [2] [kcal/mol]
1 | SAGGSAGGSKPIPIKIKARNKDDGKKREEDIQIPPEALKNGKFDKEQIKKELRKLGPRVEIEISAGGSAGGS [r20_221_TrROS] | < -1 | -0.216 ± 0.18
2 | SAGGSAGGSDPTYVEVRTLAGPAGPTRVLIRPSSGEWLEAEFPVDRPVVFFVPADVEVEVLPDSAGGSAGGS [r12_517_TrMRF] | 0.0902 ± 0.054 | 0.498 ± 0.048
3 | SAIKIEDDPNGYQQIEIPNPENGRKIVITMMYSPDGQFQMSLQRMDPNGKKKTITAPMPVEEAIDELKDSAG [r14_179_TrROS] | 0.0571 ± 0.6 | 0.698 ± 0.33
4 | TIKELAKKLGGPITVETEQYPIENPDGNPYYITDIEVQVNPNDGSLRINYEVYNPGNGKKQEEEDTIPLDDS [r1_448_TrROS] | < -1 | -0.708 ± 0.42
5 | SAGGSSYIVKATPAGGPSFEAEATLTSVSSEGDNFTANVEVTFDGKPVTLTFDGDKVGPVVIEPPESAGGSA [r2_319_TrMRF] | -0.0521 ± 0.17 | 0.558 ± 0.15
6 | SAGGSSLPPEYTVTEVEREFTTPEDVAEARAAAEAAAAAGAEVLEVTVERPEDGSYRVRFTLATPRSAGGSA [r2_350_JUSTAS] | 0.0151 ± 0.24 | 0.611 ± 0.22
7 | SAGGSATFEEALREVAEPTGAVPYVDPETGVAYVDFPDGKELEIEVPDGDRIEVRVLPDGRAVARGSAGGSA [r15_256_TrMRF] | < -1 | -0.494 ± 0.19
8 | SAGGSAGGSMEKRKLEIEIHLPASEATEEEMEELAEEYAKKNPEADEVTFKFTVEESDKESLESAGGSAGGS [r20_86_JUSTAS] | -0.605 ± 0.33 | -0.141 ± 0.25
9 | SAGGSAGGSENAALENPFANRPPIPPVRAVLYDPDGTPRVLEGRSLEEIRRYAEERGVVVDISSAGGSAGGS [r12_244_TrMRF] | -0.165 ± 0.075 | 0.397 ± 0.072
10 | SAGSVTRSFPSGSSVSAETDPETNTITISTSPSSGQLVAQLPTAGEKVVPVSDRDLEEAAKEAAEALLSSAG [r5_447_JUSTAS] | -0.854 ± 0.32 | -0.134 ± 0.12
11 | SAGGSAGGALTPTDEVTLTLPDGTVRPGRVEVLPDNVVRVRLEGSEVLLTRDPEGDEVTVERVASAGGSAGG [r6_68_JUSTAS] | 0.503 ± 0.047 | 0.964 ± 0.011
12 | SAGGSAGGSAGEAASSLKLPPVTLTTPPVPVELPPGLTVESVEPVRTPSGETILVVNLVRSAGGSAGGSAGG [r11_388_JUSTAS] | -0.349 ± 0.19 | 0.279 ± 0.13
13 | SAGGSAGGSAGGKRRIQIPPDDPGMTAEQLADRLQKEFPENGVPVEITNIDDYGYIEIESAGGSAGGSAGGS [r10_579_TrROS] | 0.443 ± 0.088 | 0.962 ± 0.021
14 | SAGGSAGGDIKIEDIEYEQNPGGWQKVEVRLPGNGRPIEVPVPPGMPYEQAKDWAKDWAEELLKSAGGSAGG [r6_628_TrROS] | 0.511 ± 0.22 | 0.724 ± 0.13
15 | SAGGSAGGSGAEITTLPEGRALLRLYDEGGVLVEEAEVEVELDAVLVFDRDNPRIGVFGPDELSAGGSAGGS [r12_1002_TrMRF] | -0.203 ± 0.14 | 0.0264 ± 0.13
16 | SAGGSGSIVIKSIEPRLRLERLPNGELREVKEVEVDIEVEVDPETAPEEEIEAVREEAEKLAEELSSAGGSA [r2_40_JUSTAS] | 0.144 ± 0.21 | 0.713 ± 0.082
17 | SAGGSAGGSAGGPPTTARITLPDGRTYTVPVPVDPTTGTVYVEDIRRAVAPNYTFTIELGSAGGSAGGSAGG [r7_492_TrMRF] | 0.414 ± 0.14 | 0.981 ± 0.16
18 | SAGGSAGGSAGMKVIVLPVPPNADRVRITYEKGPTLEIEAREDEPVVIVAPENEFTVEVDSAGGSAGGSAGG [r11_52_TrMRF] | < -1 | -0.383 ± 0.28
19 | SAGGSAGGSAGGLHPDQEFAVRLDLDLDLRLGPGADLRVSDVRVGGVRVYDLRTGRWLDSAGGSAGGSAGGS [r10_248_TrMRF] | -0.323 ± 0.25 | 0.445 ± 0.15
20 | SAGGSAGGSGMPRKIASYEEKEEEDGKKTVKVRFPDDGKEITLSPEKAGKITPDSTVPLEELLSAGGSAGGS [r20_3_JUSTAS] | -0.168 ± 0.43 | 0.404 ± 0.049
21 | SAGGSAGGSAGGKPVKVKVVIPVPDGDEVLVLEVEVEGEGGEEAVRQALEVAAELLREGSAGGSAGGSAGGS [r10_863_TrMRF] | 0.0842 ± 0.23 | 0.768 ± 0.088
22 | SAGGMTIVSSGPSIEQALQEAAEAGGDATVIYKEPESNTIITLDVKYDPAPRTITVLSETETPVPPLLSAGG [r13_309_JUSTAS] | 0.17 ± 0.1 | 0.758 ± 0.079
23 | SAGGGMEEVAKKLGVPEDARLEVLKVERYYYTREVRDPLFEEGKPVGEKIIPRPYYSEKVDYKLFDKPSAGG [r13_482_JUSTAS] | < -1 | -0.288 ± 0.32
24 | SAGGSAGGVEELAKKLNIEVTGNEVTITLKKKKVTVKKLKAPPLKVKKYVDKKTKKIVKTEVELSAGGSAGG [r6_981_TrROS_Hall] | 0.431 ± 0.29 | 0.9 ± 0.28

Row | Sequence | folding stability dG unfold [1] [kcal/mol] | folding stability dG unfold [2] [kcal/mol]
25 | SAGGSAGGSDKDVKIKVDPERTPDGNYYYRIEIENGKEINIHMPPENMTPEDAKDFVKDIIKKSAGGSAGGS [r12_218_TrROS] | < -1 | -0.44 ± 0.39
26 | SAGGSAGGSAGGKLTLKLGDYEVEVEWNPDEDVFIAEFPGDPRIARLRIPDDKIEIEPIESAGGSAGGSAGG [r7_156_TrMRF] | 0.392 ± 0.11 | 0.819 ± 0.12
27 | SAGGSAGGSAGPMYKLKAELNNKPFEVMINPDMPPDDQIYIRDPGEWIEFNIENMKVEPVSAGGSAGGSAGG [r11_247_TrROS] | -0.0971 ± 0.14 | 0.298 ± 0.21
28 | SAGGSAGGSAAPDLVTETETRTHPETGLVITRERVTLPSTGTTEERTVVTDPETGVTTTEKSSAGGSAGGSA [r18_383_JUSTAS] | -0.139 ± 0.13 | 0.294 ± 0.038
29 | SAGWDLKIEPEPNPDNGMRMINIEYEDPDGDGPYTVSIMYHNGKIKAVEVQDPNTGEPELTPEALEELFSAG [r5_872_TrROS] | -0.305 ± 0.49 | 0.14 ± 0.26
30 | SAGGSAGGSEEFVILEIPFERKFVVKDPEGGEEREFEFRPVIPLVLPPELAEKLLKSPYLQKKSAGGSAGGS [r12_1015_TrMRF] | 0.416 ± 0.22 | 0.721 ± 0.26
31 | SAGGSAGGSAGGGPPVERVTTETILRPDGTTTTTRKTTVVPPTDTVTTTTTTLTTTPVTSAGGSAGGSAGGS [r10_1139_JUSTAS] | 0.0441 ± 0.18 | 0.328 ± 0.067
32 | SAMKIEIEVPSLEQVKKLEKLLPDKYKISEVKVDPETKKVYVIIELDPSLSPEEVAKLEKEFEEVVKEESAG [r14_306_TrMRF] | 5.14 ± 0.58 | 5.03 ± 0.28
33 | SAGGSAGGSAGGPPIIEFPIKGDNPEQAKRFAKEVVDLLPDQNPENVDITTTDGWVRITSAGGSAGGSAGGS [r10_182_TrROS] | < -1 | -0.636 ± 0.67
34 | SAGGSAGGSAGGSSTITLDPANPTVVTDPATGVPTTGVSLAELEKLGMKPAGPDAYVVLSAGGSAGGSAGGS [r4_306_JUSTAS] | < -1 | 0.289 ± 0.18
35 | SAGGSAGGSAGGPEIKPFDSLEEVVEEIKKNPNKERIYLLPDSVIYTLKEDKILKIEPLKSAGGSAGGSAGG [r7_532_TrMRF] | < -1 | -0.105 ± 0.47
36 | SAGPEIKIEPRSYDPKKGIFTYSAYVLDYKDGKKEREIEVGTWRYYGPDGTVEPISEEDILQKAKDLLSSAG [r5_909_TrMRF] | 0.371 ± 0.18 | 0.543 ± 0.32
37 | SAGGSAGGSAGGMVKKTYEKKKPPGSMEYVTEKEYDPKTNTVKTTTVPVSEYKNIPNKNSAGGSAGGSAGGS [r10_1077_JUSTAS] | < -1 | -0.0965 ± 0.56
38 | SAGRRKVEIPIPFDDPGQAMSADELADELRELGLKPGHEPKVEPHPDGYMRVKFEVPGPEVTIHIPMWDSAG [r5_144_TrROS] | 0.183 ± 0.098 | 0.747 ± 0.16
39 | SAGGSAGGSAILRIKLEHPKSGKPMTWVIPPEMNIEQIADMLMEQHPNAEIKDIEWVPPNQISAGGSAGGSA [r18_242_TrROS] | -0.0546 ± 0.097 | 0.3 ± 0.12
40 | SAGGSAGGSAGGSPRHYYVEIEFPNGRKMSIPIESPEEALDYLEDHNYPIKDVELHPLKSAGGSAGGSAGGS [r4_213_TrROS] | -0.323 ± 0.41 | 0.0167 ± 0.25
41 | SAGGSAGGSAGGGMEFSTVTVKRTLKTLGKTEVTTVPVVNPVPPPPPLGPENIARSRGVLSAGGSAGGSAGG [r7_79_JUSTAS] | < -1 | -0.0494 ± 0.21
42 | SAGMTPEDLKNGKPVKVPIPIPIRDPDGKPWAEIPIKGPMPVKDIMEVIETIREIARELKIPPSDGDKNSAG [r5_606_TrROS] | < -1 | -0.743 ± 0.53
43 | SAGGSAGGSAPRLVRVRGPDGGERVIPVPPDVLADRIPPDVPVRVPVVREDGRFRFRVERGSAGGSAGGSAG [r3_86_TrMRF] | < -1 | -0.819 ± 0.88
44 | SAGGSAGGSASLVVVTTKPPNGPETVELTTDYPPDVRRVTTDPKTGATSEVVVLPADAVLPSAGGSAGGSAG [r3_356_JUSTAS] | 0.295 ± 0.2 | 0.873 ± 0.06
45 | SAGGSAGGSASMSTTEITVTELEEPGEGKRLVIETKSFTPEGKEIDSEKVEEEVREELGVKPSAGGSAGGSA [r18_332_JUSTAS] | -0.585 ± 0.24 | -0.0823 ± 0.079
46 | SAGGSAGGSDKIRKALKELGYPYEIDNIDVNVTKNGNPEIEIKYSPGMPPQDQKRIKRAVIDLSAGGSAGGS [r12_352_TrROS] | -0.469 ± 0.15 | -0.14 ± 0.065
47 | SAGGSAGGSAGGMLPFEVLEVTTSTGKGKTTRTVLAREPEGPEVVLTFSPASPEEIERLLSAGGSAGGSAGG [r7_365_JUSTAS] | 0.224 ± 0.13 | 0.735 ± 0.13
